The values below are quoted from earlier work in PMC7788954.

In the series the target is Sans SAM-PBM (Homo sapiens) (UniProt Q495M9).
Sans SAM-PBM (Homo sapiens), sequence (Q495M9 388-461): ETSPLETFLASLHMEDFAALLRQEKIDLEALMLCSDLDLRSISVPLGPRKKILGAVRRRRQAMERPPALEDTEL

harmonin N-terminal HHD-containing supramodule, sequence (Q9Y6N9 1-192): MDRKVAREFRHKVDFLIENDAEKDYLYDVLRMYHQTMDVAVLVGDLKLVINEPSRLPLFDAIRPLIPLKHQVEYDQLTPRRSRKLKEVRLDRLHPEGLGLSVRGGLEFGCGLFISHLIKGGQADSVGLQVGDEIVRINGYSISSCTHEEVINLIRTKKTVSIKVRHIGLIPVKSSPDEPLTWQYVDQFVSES

Regarding “harmonin N-terminal HHD-containing supramodule (from UniProt Q9Y6N9)”, the Kd is 1 nM.

A word on the Kd: it is a measure of binding affinity in units of concentration.
